The values below come from patent US12186353B2, “Method of reducing neuronal microtubule binding protein Tau (Tau) levels” (ADAERATA, LIMITED PARTNERSHIP, priority 2018, dated 2025).

For test [1], the system named is human Tau fused with GFP. The test is described as follows: Flow cytometry of Tau-GFP over DsRed in DAOY cells transfected with Numb isoforms. The test is classed as cell-based. To be noted: three days after transfection, compared to controls (Myc-Tag). An excerpt:
FIGS. 6A-I: Isoform Numb-72 interacts with Tau and regulates Tau level. FIG. 6A. Schematic of 4 Numb isoforms, differing with the presence or the absence of an insertion (arrowhead) in PTB domain arrowhead, and the presence or the absence of an insertion in the proline-rich region (PRR). FIG. 6B. Coimmunoprecipitation of Tau and 4 isoforms of Numb in HEK293 cells. Each Numb isoform was transfected in HEK293T cells together with a flag-tagged version of Tau and immunoprecipitation was perform 24 hours later with a flag antibody and blotted for Numb. […] FIG. 6C. Detection of Tau::GFP level in presence of 4 isoforms of Numb by western blot in HEK293. All the Numb isoforms were transfected with a Tau::GFP fusion protein in HEK293T cells and the levels of Tau::GFP was analysed by western blot 48 hours after transfection. FIG. 6D. […] DsRed-IRES-Tau::EGFP expressing cells were used to assess the abundance of Tau by monitoring the Tau-GFP to DsRed fluorescence ratio. […] FIGS. 6F-J. Fluorescence-activated cell sorting (FACs) analysis of the 4 Numb isoforms affected 3 days after transfection on ratio DsRed versus DsRed and GFP-positives cells compared to the control (Myc-Tag). FIG. 6K Quantification represents fold change for 5 experiments, +/− SEM, **p≤0.001; n.s. non-significant Anova 1-way test. […]

Test [2] relates to Tau. Put plainly: Western blot of Tau fusion protein levels in HEK293T cells co-expressing Numb isoforms. Format: cell-based. To be noted: 48 hours after transfection. An excerpt:
FIGS. 6A-I: Isoform Numb-72 interacts with Tau and regulates Tau level. FIG. 6A. Schematic of 4 Numb isoforms, differing with the presence or the absence of an insertion (arrowhead) in PTB domain arrowhead, and the presence or the absence of an insertion in the proline-rich region (PRR). FIG. 6B. Coimmunoprecipitation of Tau and 4 isoforms of Numb in HEK293 cells. Each Numb isoform was transfected in HEK293T cells together with a flag-tagged version of Tau and immunoprecipitation was perform 24 hours later with a flag antibody and blotted for Numb. […] FIG. 6C. Detection of Tau::GFP level in presence of 4 isoforms of Numb by western blot in HEK293. All the Numb isoforms were transfected with a Tau::GFP fusion protein in HEK293T cells and the levels of Tau::GFP was analysed by western blot 48 hours after transfection. FIG. 6D. Schematic representation of DNA construct of a human-medulloblastoma-derived cell line (DAOY) expressing human Tau fused with EGFP (Lasagna-Reeves et al., 2016). Additionally, this cell line expresses DsRed upstream of an internal ribosomal entry site (IRES), which is translated independently of the Tau-GFP protein. DsRed-IRES-Tau::EGFP expressing cells were used to assess the abundance of Tau by monitoring the Tau-GFP to DsRed fluorescence ratio. FIG. 6E. DsRed and Tau::EGF expression in Daoy cells, transfected with Myc only construct. FIGS. 6F-J. Fluorescence-activated cell sorting (FACs) analysis of the 4 Numb isoforms affected 3 days after transfection on ratio DsRed versus DsRed and GFP-positives cells compared to the control (Myc-Tag). FIG. 6K Quantification represents fold change for 5 experiments, +/− SEM, **p≤0.001; n.s. non-significant Anova 1-way test.
Numb72::Myc. HEK293T cells were transfected with Jet Prime using the following constructs Tau::Flag, Tau::GFP, Numb65, Numb66, Numb71 and Numb72.
Cells were harvested, and lysed in a NP-40 buffer (50 mm TRIS, pH 8.0, 150 mm NaCl, 1.0% NP-40 with Complete Protease Inhibitor Cocktail (Roche)). For immunoblotting, 40 μg of protein samples for in vivo blot and 10 ug for in vitro blot were loaded on a 10% acrylamide SDS-PAGE gels for separation by electrophoresis migration and then transferred onto PVDF membranes using transblot machine (Millipore). […] The primary antibody was detected with an HRP-conjugated goat anti-rabbit (1:10,000; Jackson Immunoresearch) in 0.5% dry milk in TBST. […]
To determine whether increasing the levels of Numb could affect the levels of Tau, the inventors co-expressed all isoforms of Numb together with a Tau::Venus fusion protein in HEK293T cells and analyzed the levels of Tau::Venus by western blot 48 hours after transfection.

B1: Numb-72: 72 kDa Numb isoform with long PTB domain and long PRR; human isoform 1 (SEQ ID NO: 1); expressed by transfection (protein)
chain: MNKLRQSFRRKKDVYVPEASRPHQWQTDEEGVRTGKCSFPVKYLGHVEVDESRGMHICEDAVKRLKAERKFFKGFFGKTGKKAVKAVLWVSADGLRVVDEKTKDLIVDQTIEKVSFCAPDRNFDRAFSYICRDGTTRRWICHCFMAVKDTGERLSHAVGCAFAACLERKQKREKECGVTATFDASRTTFTREGSFRVTTATEQAEREEIMKQMQDAKKAETDKIVVGSSVAPGNTAPSPSSPTSPTSDATTSLEMNNPHAIPRRHAPIEQLARQGSFRGFPALSQKMSPFKRQLSLRINELPSTMQRKTDFPIKNAVPEVEGEAESISSLCSQITNAFSTPEDPFSSAPMTKPVTVVAPQSPTFQANGTDSAFHVLAKPAHTALAPVAMPVRETNPWAHAPDAANKEIAATCSGTEWGQSSGAASPGLFQAGHRRTPSEADRWLEEVSKSVRAQQPQASAAPLQPVLQPPPPTAISQPASPFQGNAFLTSQPVPVGVVPALQPAFVPAQSYPVANGMPYPAPNVPVVGITPSQMVANVFGTAGHPQAAHPHQSPSLVRQQTFPHYEASSATTSPFFKPPAQHLNGSAAFNGVDDGRLASADRHTEVPTGTCPVDPFEAQWAALENKSKQRTNPSPTNPFSSDLQKTFEIEL
modifications: homo sapiens
notes: 72 kDa Numb isoform with long PTB domain and long PRR; expressed by transfection
B1: the “proportion of cells with low levels of Tau-GFP (Tau-GFP over DsRed)” value in test [1] is given as “increased the proportion of cells with low levels of Tau-GFP”. The “levels of Tau::Venus by western blot” value in test [2] is “significantly reduced the levels of Tau”.
